Article PMC11487180

Key:
PAK6 (Homo sapiens) = PAK6 (Homo sapiens) (UniProt Q9NQU5); conditions: cited from earlier work
[1] = molecular target: MBP-LRRK2-Roc-COR (wild type) (human) (UniProt Q5S007); experiment: MST; NT-647-NHS labelled MBP-LRRK2-Roc-COR at 100 nM; unlabelled GST, GST-CRIB-PAK5 or GST-CRIB-PAK6 titrated; guanine nucleotides at 0.5 mM; Monolith NT.115, IR laser power 80%; analysed by PALMIST
[2] = molecular target: 3xFlag tagged PAK6, full-length, purified from HEK293 cells (human) (UniProt Q9NQU5); experiment: MST; NT-647-NHS labelled PAK6 full-length at 100 nM; unlabelled MBP-LRRK2-Roc-COR titrated (R1441C 3.4 nM to 110 µM, Y1699C 3.6 nM to 118 µM); guanine nucleotides at 0.5 mM; Monolith NT.115, IR laser power 80%; analysed by PALMIST
Chain of 3xFlag tagged PAK6, full-length, purified from HEK293 cells (human) (Q9NQU5 whole entry): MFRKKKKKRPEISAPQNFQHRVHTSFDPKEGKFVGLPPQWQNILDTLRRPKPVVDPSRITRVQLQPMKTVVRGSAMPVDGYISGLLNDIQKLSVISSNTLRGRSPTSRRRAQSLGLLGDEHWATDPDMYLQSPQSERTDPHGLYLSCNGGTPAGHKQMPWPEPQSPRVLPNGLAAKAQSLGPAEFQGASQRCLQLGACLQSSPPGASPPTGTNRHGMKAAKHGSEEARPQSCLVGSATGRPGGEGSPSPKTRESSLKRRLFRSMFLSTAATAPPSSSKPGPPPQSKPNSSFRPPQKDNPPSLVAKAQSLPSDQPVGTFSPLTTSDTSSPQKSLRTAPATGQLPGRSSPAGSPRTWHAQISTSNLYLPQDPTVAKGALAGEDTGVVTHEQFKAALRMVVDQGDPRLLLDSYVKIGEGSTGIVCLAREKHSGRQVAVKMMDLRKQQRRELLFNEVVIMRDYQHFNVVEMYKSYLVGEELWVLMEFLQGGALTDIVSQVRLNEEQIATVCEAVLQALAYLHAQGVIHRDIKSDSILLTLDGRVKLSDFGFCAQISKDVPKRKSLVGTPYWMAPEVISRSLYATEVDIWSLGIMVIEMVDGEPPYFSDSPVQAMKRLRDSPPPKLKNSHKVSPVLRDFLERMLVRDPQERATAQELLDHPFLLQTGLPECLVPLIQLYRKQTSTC

Chain of MBP-LRRK2-Roc-COR (wild type) (human) (Q5S007 whole entry): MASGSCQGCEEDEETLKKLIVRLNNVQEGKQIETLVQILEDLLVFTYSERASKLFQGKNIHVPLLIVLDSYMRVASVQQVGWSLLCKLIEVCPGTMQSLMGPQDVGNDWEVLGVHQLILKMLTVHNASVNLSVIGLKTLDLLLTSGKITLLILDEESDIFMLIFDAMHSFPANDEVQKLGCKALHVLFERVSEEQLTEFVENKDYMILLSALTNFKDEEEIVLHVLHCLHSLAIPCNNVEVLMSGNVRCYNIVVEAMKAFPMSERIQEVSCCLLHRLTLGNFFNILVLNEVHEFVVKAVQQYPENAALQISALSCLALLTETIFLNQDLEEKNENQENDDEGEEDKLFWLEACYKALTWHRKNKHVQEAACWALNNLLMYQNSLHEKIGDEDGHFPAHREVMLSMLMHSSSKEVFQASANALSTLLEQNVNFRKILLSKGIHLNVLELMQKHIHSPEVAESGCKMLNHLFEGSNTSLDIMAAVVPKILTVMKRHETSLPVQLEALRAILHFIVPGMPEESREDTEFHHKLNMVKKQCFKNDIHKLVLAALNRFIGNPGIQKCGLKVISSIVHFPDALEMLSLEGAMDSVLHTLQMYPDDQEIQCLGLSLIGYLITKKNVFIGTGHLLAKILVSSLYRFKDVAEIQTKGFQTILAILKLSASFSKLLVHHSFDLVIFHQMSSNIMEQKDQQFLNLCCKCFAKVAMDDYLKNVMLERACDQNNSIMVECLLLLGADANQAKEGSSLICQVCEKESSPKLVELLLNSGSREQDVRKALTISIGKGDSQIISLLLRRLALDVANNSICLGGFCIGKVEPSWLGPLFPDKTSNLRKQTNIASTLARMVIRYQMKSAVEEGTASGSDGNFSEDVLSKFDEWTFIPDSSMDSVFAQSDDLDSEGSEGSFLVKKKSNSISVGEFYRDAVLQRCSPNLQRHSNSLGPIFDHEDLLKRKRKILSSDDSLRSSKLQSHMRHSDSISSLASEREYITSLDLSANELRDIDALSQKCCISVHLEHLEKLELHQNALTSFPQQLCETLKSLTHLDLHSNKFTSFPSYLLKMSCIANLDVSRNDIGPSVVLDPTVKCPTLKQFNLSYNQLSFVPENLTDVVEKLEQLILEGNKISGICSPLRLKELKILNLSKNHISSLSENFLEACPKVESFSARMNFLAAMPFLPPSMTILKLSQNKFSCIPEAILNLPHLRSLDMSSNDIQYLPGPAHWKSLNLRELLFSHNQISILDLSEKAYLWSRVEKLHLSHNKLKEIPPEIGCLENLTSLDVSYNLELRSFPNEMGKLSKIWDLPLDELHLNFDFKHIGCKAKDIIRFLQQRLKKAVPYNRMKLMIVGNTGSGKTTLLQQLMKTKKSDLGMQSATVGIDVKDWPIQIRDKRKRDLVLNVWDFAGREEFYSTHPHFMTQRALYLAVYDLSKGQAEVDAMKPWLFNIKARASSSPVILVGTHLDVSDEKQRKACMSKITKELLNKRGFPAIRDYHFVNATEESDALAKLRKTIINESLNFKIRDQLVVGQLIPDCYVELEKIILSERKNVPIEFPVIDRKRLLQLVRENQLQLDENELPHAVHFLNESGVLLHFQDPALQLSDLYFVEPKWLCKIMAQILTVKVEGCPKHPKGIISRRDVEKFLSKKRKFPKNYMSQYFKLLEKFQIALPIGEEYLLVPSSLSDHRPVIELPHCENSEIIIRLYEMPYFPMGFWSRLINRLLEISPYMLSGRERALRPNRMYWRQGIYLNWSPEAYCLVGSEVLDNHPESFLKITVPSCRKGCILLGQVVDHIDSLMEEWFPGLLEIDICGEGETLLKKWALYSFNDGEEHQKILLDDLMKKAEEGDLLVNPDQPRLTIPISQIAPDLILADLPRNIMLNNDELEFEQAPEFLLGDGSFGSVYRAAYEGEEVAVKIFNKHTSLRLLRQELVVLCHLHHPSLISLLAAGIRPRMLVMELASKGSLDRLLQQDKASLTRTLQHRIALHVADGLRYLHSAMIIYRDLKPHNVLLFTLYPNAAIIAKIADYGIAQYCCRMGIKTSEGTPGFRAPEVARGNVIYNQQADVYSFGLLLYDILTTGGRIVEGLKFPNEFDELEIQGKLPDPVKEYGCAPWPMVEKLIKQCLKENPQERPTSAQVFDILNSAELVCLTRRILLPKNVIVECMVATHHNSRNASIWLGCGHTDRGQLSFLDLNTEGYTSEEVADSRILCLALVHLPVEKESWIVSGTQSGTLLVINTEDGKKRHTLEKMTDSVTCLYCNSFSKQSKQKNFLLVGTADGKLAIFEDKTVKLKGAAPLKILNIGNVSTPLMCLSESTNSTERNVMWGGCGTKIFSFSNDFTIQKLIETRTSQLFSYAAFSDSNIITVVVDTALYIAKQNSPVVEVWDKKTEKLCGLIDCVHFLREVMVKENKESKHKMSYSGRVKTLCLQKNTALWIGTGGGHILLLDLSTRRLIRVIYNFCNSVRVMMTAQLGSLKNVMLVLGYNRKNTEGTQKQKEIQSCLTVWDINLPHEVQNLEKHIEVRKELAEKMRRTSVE
Chain of LRRK2 Roc-COR (Q5S007 1328-1840): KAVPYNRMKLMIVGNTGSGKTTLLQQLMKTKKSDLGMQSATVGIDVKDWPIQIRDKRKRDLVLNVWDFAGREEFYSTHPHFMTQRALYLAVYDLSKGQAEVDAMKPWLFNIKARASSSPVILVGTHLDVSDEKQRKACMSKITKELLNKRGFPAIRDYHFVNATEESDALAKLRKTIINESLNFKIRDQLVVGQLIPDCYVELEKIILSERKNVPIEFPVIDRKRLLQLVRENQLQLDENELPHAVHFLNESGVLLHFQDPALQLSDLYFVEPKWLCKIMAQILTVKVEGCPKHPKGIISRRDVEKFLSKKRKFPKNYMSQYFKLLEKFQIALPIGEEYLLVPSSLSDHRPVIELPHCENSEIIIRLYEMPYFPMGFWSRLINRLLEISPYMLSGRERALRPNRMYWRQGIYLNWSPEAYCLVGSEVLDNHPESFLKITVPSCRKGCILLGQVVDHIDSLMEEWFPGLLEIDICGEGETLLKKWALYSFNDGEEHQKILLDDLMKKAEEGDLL
Chain of GST-CRIB(PAK6) (Q9NQU5 11-45): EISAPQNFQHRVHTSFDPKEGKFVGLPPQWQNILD
Chain of GST-CRIB(PAK5) (Q9P286 10-44): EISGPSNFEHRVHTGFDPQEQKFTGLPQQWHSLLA
Chain of PAK6 (Homo sapiens) (Q9NQU5 whole entry): as the sequence (Q9NQU5 whole entry) above

| Substance | Kd [1] [µM] | Kd [2] [µM] | further results |
| --- | --- | --- | --- |
| LRRK2 Roc-COR (from UniProt Q5S007) | – | – | Kd (PAK6 (Homo sapiens)): 10 µM |
| MBP-LRRK2-Roc-COR R1441C (from UniProt Q5S007 1-2527) (domain or fragment) | – | 51.8 | – |
| GST-CRIB(PAK6) (from UniProt Q9NQU5 11-45) (domain or fragment) | 12 | – | – |

The next lines start with results.

| Kd [1] [µM] | Kd [2] [µM] | Substance | further results |
| --- | --- | --- | --- |
| 112 | – | GST-CRIB(PAK5) (from UniProt Q9P286 10-44) (domain or fragment) | – |
| – | 38.2 | MBP-LRRK2-Roc-COR Y1699C (from UniProt Q5S007 1-2527) (domain or fragment) | – |
